One may read the Kd as the equilibrium constant for the complex coming apart.

These results are taken from PMC3691326, “Structure of the Human Telomeric Stn1-Ten1 Capping Complex” (PLoS ONE, 2013).

In data set [1] the target is T1, hStn1 (Homo sapiens, UniProt Q9H668 1-368).
T1 sequence: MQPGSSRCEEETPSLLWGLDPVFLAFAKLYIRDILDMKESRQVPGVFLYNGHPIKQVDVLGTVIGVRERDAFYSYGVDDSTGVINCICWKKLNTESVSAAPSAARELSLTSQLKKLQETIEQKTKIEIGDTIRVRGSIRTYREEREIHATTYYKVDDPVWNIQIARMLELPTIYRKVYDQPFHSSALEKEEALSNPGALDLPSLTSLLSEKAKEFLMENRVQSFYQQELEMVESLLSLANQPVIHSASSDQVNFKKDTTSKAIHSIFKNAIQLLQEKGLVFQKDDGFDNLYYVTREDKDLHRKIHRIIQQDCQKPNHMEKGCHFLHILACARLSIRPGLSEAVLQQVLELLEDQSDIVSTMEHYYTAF
The data set is described as follows: fluorescence polarization; FP: 100 mM NaCl, 5 mM MgCl2, 1 mM DTT, 5% glycerol, 1 mg/mL BSA, 2.5 nM 6-FAM DNA, room temperature; pH not stated. As to conditions: protein: recombinant; tags: none stated after TEV cleavage (his-MBP fusion removed); single strand. Background: In fluorescence polarisation assays a small probe gives low polarisation when free and higher when bound to something large.

The target in data set [2] is T2, human Stn1, full length, wild type (human, UniProt Q9H668 1-368).
T2 construct: human Stn1 (hStn1), subunit of the human CST complex, full length; The methods describe the his-MBP tag for hStn1N only and say that full-length hStn1 was overexpressed and purified by the same procedure; also called hStn1; hStn1(WT); not shown: His (by 'the same procedure' as hStn1N), N-terminal, cleaved; MBP (by 'the same procedure' as hStn1N), N-terminal, cleaved
T2 sequence (looked up): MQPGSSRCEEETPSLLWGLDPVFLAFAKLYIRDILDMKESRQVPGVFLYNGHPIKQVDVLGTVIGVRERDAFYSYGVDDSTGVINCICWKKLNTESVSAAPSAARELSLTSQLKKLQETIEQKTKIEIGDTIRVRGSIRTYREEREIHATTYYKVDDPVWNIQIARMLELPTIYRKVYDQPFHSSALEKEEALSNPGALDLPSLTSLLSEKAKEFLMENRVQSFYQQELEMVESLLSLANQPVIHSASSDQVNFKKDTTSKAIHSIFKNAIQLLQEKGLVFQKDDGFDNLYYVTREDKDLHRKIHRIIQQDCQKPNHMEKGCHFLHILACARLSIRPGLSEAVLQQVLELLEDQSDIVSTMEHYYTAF
The data set is described as follows: ITC; MicroCal iTC200; hTen1 at 125 µM injected into the cell with hStn1 at 12 µM; 20°C; 300 mM KCl, 25 mM Tris-HCl pH 7.5, 1 mM DTT, 5% glycerol; 2.47 µL injections. To be noted: both partners purified. For orientation: ITC needs no label: the signal is the heat of the interaction.

In data set [3] the target is T3, hTen1 (Homo sapiens, UniProt Q86WV5 1-123).
T3 sequence: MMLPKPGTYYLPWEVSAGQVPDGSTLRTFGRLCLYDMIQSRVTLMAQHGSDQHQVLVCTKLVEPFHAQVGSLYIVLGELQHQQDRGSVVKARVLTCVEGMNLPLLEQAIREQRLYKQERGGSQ
The data set is described as follows: fluorescence polarization; not detected; FP: 100 mM NaCl, 5 mM MgCl2, 1 mM DTT, 5% glycerol, 1 mg/mL BSA, 2.5 nM 6-FAM DNA, room temperature; pH not stated. As to conditions: protein: recombinant; single strand.

Turning to TTAGGGTTAGGGTTAGGG (ssDNA) [tel18], the Kd in data set [1] was ~200 nM.

B1: human Ten1, full length, wild type (natural protein, UniProt Q86WV5 1-123, looked up)
chain: MMLPKPGTYYLPWEVSAGQVPDGSTLRTFGRLCLYDMIQSRVTLMAQHGSDQHQVLVCTKLVEPFHAQVGSLYIVLGELQHQQDRGSVVKARVLTCVEGMNLPLLEQAIREQRLYKQERGGSQ
notes: human Ten1 (hTen1), subunit of the human CST complex, full length; Purification is described only for the complex with hStn1N (cells mixed before lysis; tags cleaved by TEV); also called hTen1; hTen1(WT); source: E. coli BL21-CodonPlus(DE3) RIPL, purified; not shown: His, N-terminal, cleaved
In data set [2], B1 displayed a Kd of 6.3 nM.

B2: human Ten1 (Y115A), full length (natural protein, UniProt Q86WV5 1-123, looked up)
chain: MMLPKPGTYYLPWEVSAGQVPDGSTLRTFGRLCLYDMIQSRVTLMAQHGSDQHQVLVCTKLVEPFHAQVGSLYIVLGELQHQQDRGSVVKARVLTCVEGMNLPLLEQAIREQRLAKQERGGSQ
notes: human Ten1, full length, with Y115A; also called hTen1(Y115A); source: purified (pure, homogeneous)
In turn, B2 showed a Kd in data set [2] of 14 nM.

B3: human Ten1 (R119Q), full length (natural protein, UniProt Q86WV5 1-123, looked up)
chain: MMLPKPGTYYLPWEVSAGQVPDGSTLRTFGRLCLYDMIQSRVTLMAQHGSDQHQVLVCTKLVEPFHAQVGSLYIVLGELQHQQDRGSVVKARVLTCVEGMNLPLLEQAIREQRLYKQEQGGSQ
notes: human Ten1, full length, with R119Q; also called hTen1(R119Q); source: purified (pure, homogeneous)
For the molecule B3, the Kd in data set [2] was 13 nM.

B4: human Ten1 (R27Q), full length (natural protein, UniProt Q86WV5 1-123, looked up)
chain: MMLPKPGTYYLPWEVSAGQVPDGSTLQTFGRLCLYDMIQSRVTLMAQHGSDQHQVLVCTKLVEPFHAQVGSLYIVLGELQHQQDRGSVVKARVLTCVEGMNLPLLEQAIREQRLYKQERGGSQ
notes: human Ten1, full length, with R27Q; also called hTen1(R27Q); source: purified (pure, homogeneous)
For the molecule B4, binding in data set [2] was put at a Kd of 33 nM.
As to TTAGGGTTAGGG (ssDNA) [tel12], the Kd in data set [1] is ~1000 nM.
For the molecule TTAGGGTTAGGGTTAGGGTTAGGGTTAGGG (ssDNA) [tel30], the binding result in data set [3] is on record as “no binding”.
For the molecule GTTACGAAATACGGACAC (ssDNA) [rand18], the Kd in data set [1] is ~200 nM.
